Our source for the reduction in the protein binding efficiency (control Ku70 1–250) and IN binding activity, % of the wild-type protein values is paper PMC8951179.

Assay [1] addresses GST-Ku70_1–250_Q65A/Q68A (human) (UniProt P12956). In words: pull-down; GST pull-down: 100 nM GST-Ku70 variant as bait on glutathione-agarose, 100 or 200 nM His6-IN; buffer A (20 mM Hepes pH 7.5, 100 mM NaCl, 7.5 mM MgCl2, 2 mM 2-mercaptoethanol, 50 µg/mL BSA, 0.1% NP40), room temperature; Western blot. A general note: In western blotting, separated proteins are transferred to a membrane and probed.

In assay [2] the target is GST-Ku70_1–250_S69A (human) (UniProt P12956). Described as above.

As for “HIV-1 integrase carrying N-terminal His6-tag (natural protein)”, the reduction in the protein binding efficiency (control Ku70 1–250) in assay [1] was 10 to 15%. The IN binding activity, % of the wild-type protein in assay [2] was 55 to 73%.
